Data from US20150141335A1, “THERAPEUTIC USES OF FIBROBLAST GROWTH FACTOR 21 PROTEINS” (Eli Lilly and Company, published 2015).

Legend:
human βKlotho = human βKlotho (human, UniProt Q86Z14); assay: cell-based or functional assay
wild type mouse βKlotho = molecular target: T1, wild type mouse βKlotho (mouse, UniProt Q99N32); assay: cell-based or functional assay
T1 sequence: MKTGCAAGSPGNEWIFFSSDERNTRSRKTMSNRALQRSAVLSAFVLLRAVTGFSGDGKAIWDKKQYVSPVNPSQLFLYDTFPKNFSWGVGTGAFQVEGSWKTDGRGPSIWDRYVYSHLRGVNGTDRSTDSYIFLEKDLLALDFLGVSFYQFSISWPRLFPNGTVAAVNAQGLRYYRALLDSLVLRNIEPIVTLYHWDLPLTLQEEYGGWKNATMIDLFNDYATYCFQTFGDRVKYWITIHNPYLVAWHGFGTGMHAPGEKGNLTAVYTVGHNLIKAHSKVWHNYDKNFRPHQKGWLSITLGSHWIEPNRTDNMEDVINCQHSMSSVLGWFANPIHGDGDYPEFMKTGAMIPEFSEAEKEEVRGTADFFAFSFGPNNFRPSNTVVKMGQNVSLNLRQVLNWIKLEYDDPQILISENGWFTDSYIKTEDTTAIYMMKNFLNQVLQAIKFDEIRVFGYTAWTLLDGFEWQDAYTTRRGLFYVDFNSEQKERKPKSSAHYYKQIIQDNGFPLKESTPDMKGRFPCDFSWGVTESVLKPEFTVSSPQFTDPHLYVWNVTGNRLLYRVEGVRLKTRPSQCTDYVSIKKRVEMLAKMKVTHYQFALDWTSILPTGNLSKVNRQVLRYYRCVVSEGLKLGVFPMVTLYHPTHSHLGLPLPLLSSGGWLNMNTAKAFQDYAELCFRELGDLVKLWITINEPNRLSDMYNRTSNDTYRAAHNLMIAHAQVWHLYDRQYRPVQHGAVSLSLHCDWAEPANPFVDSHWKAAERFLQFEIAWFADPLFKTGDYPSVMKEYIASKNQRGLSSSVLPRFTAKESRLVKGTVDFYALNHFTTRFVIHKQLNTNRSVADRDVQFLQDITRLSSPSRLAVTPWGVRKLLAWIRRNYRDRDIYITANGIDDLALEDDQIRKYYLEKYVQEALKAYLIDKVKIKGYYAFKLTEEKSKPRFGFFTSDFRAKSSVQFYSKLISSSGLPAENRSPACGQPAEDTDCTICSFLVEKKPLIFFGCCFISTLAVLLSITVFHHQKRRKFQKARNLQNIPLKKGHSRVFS

B1: FGF21 protein of SEQ ID NO: 1 (ligand)
chain: HPIPDSSPLLQFGGQVRQRYLYTDDAQQTECHLEIREDGTVGCAADQSPESLLQLKALKPGVIQILGVKTSRFLCQRPDGALYGSLHFDPEACSFREDLLEDGYNVYQSEAHGLPLHLPGDKSPHRKPAPRGPARFLPLPGLPPALPEPPGILAPQPPDVGSSDPLRLVEPSQLLSPSFLG
SRE driven luciferase in 293-βKlotho-SRE luc cells, in vitro potency (EC50) (human βKlotho): 0.25 nM
glucose uptake (2-deoxy-D-(14C) glucose) in 3T3-L1-βKlotho fibroblasts, in vitro potency (EC50) (wild type mouse βKlotho): 0.026 nM
